Target: PCBP2 (poly(C)-binding protein 2, hnRNP E2) (UniProt Q15366)
Test: EMSA
Conditions: EMSA: 25 mM NaH2PO4 pH 8.0, 50 mM NaCl, 25 mM KCl, 2.5 mM MgCl2, 10 mM imidazole, 0.5 mM DTT, 0.5 mM PMSF, 7% glycerol, 0.5 U/uL RNasin, 75 ng/uL BSA …

PCBP2 (poly(C)-binding protein 2, hnRNP E2), sequence (Q15366 whole entry): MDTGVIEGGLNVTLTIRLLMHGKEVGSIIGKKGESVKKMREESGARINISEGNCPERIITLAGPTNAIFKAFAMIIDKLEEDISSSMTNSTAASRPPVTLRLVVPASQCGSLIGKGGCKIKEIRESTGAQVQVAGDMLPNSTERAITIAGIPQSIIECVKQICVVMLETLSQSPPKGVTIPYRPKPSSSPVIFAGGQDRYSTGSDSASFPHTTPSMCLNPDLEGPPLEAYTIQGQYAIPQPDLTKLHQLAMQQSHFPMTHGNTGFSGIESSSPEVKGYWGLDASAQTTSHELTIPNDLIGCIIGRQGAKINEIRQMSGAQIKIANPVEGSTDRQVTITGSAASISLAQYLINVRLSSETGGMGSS

“GGUCAUGGCGACUGUCCAGCUUUGUGCCAGGAGCCUCGCAGGGGUUGAUGGGAUUGGGGUUUUCCCCUCCCAUGUGCUCAAGACUGGCGCUAAAAGUUUUGAGCUUCUCAAAAGUCUAGAGCCACCGUCCAGGGAGCAGGUAGCUGCUGGGCUCCGGGGACACUUUGCGUUCGGGCUGGGAGCGUGCUUUCCACGACGGUGACACGCUUCCCUGGAUUGGCAGCCAGACUGCCUUCCGGGUCACUGCCAUGGAGGAGCCGCAGUCAGAUCCUAGCGUCGAGCCCCCUCUGAGUCAGGAAACAUUUUCAGACCUAUGGAAACUACUUCCUGAAAACAACGUUCUGUCCCCCUUGCCGUCCCAAGCAAUG [P0-Δ40p53 RNA]” showed a Kd of 63 nM.
